Substitutions are numbered along the chain they refer to. No end group written: not given here. *: point of attachment. Biotin = O=C1N[C@H]2[C@H](CS[C@H]2CCCCC(=O)*)N1
B1: S-2 (antibody, V domains shown)
VH: not shown
VL: DIQMTQSPSSLSASVGDRVTITCRASQSISSYLNWYQQKPGKAPKLLIYAASSLQSGVPSRFSGSGSGTDFTLTISSLQPEDFATYYCQQSDVSPITFGGGTKVEIK
notes: IgG; also called S-02
B2: S-22 (antibody, V domains shown)
VH: QVQLVQSGAEVKKPGSSVKVSCKASGGTFSSYAISWVRQAPGQGLEWMGGIIPIFGTASYAQKFQGRVTITADESTSTAYMELSSLRSEDTAVYYCARQGRKTGYYYYYGMDVWGQGTTVTVSS
VL: DIQMTQSPSTLSASVGDRVTITCRASQSISSWLAWYQQKPGKAPKLLIYKASSLESGVPSRFSGSGSGTEFTLTISSLQPDDFATYYCQQADGHITFGGGTKVEIK
notes: IgG
B3: S-15 (antibody, V domains shown)
VH: QVQLVQSGAEVKKPGASVKVSCKASGYTFTSYYMSWVRQAPGQGLEWMGIINPSGGSTSYAQKFQGRVTMTRDTSTSTVYMELSSLRSEDTAVYYCARDPSGIAAAGPASRYYYGMDVWGQGTTVTVSS
VL: EIVMTQSPATLSVSPGERATLSCRASQSVSSNLAWYQQKPGQAPRLLIYGASTRATGIPARFSGSGSGTEFTLTISSLQSEDFAVYYCQQARLGPWTFGGGTKVEIK
notes: IgG
B4: S-2-11 Fab (Fab, V domains shown)
VH: QVQLVQSGAEVKKPGASVKVSCKASGYTFLAYYMHWVRQAPGQGLEWMGWINPSWGSTSYAQKFQGRVTMTRDTSISTAYMELSRLRSDDTAVYYCARGKRSSGWYEGYGMDVWGQGTTVTVSS
VL: B1 VL
notes: Fab by papain digestion
B5: S-22-3 Fab (Fab, V domains shown)
VH: B2 VH with S30R, I54G, S59W
VL: B2 VL
notes: Fab by papain digestion
B6: S-22-7 Fab (Fab, V domains shown)
VH: B2 VH with I54G, T57R, S59N
VL: B2 VL
notes: Fab by papain digestion
B7: S-22-9 Fab (Fab, V domains shown)
VH: B2 VH with S30R, S31N, F55G, T57W, S59N
VL: B2 VL
notes: Fab by papain digestion
B8: S-15-3 Fab (Fab, V domains shown)
VH: B3 VH with Y32T, S54Y
VL: B3 VL
notes: Fab by papain digestion
B9: S-15-14 Fab (Fab, V domains shown)
VH: B3 VH with Y32Q, S54Y
VL: B3 VL
notes: Fab by papain digestion
B10: recombinant human Progranulin (Adipogen) (ligand, UniProt P28799 18-593, looked up)
chain: TRCPDGQFCPVACCLDPGGASYSCCRPLLDKWPTTLSRHLGGPCQVDAHCSAGHSCIFTVSGTSSCCPFPEAVACGDGHHCCPRGFHCSADGRSCFQRSGNNSVGAIQCPDSQFECPDFSTCCVMVDGSWGCCPMPQASCCEDRVHCCPHGAFCDLVHTRCITPTGTHPLAKKLPAQRTNRAVALSSSVMCPDARSRCPDGSTCCELPSGKYGCCPMPNATCCSDHLHCCPQDTVCDLIQSKCLSKENATTDLLTKLPAHTVGDVKCDMEVSCPDGYTCCRLQSGAWGCCPFTQAVCCEDHIHCCPAGFTCDTQKGTCEQGPHQVPWMEKAPAHLSLPDPQALKRDVPCDNVSSCPSSDTCCQLTSGEWGCCPIPEAVCCSDHQHCCPQGYTCVAEGQCQRGSEIVAGLEKMPARRASLSHPRDIGCDQHTSCPVGQTCCPSLGGSWACCQLPHAVCCEDRQHCCPAGYTCNVKARSCEKEVVSAQPATFLARSPHVGVKDVECGEGHFCHDNQTCCRDNRQGWACCPYRQGVCCADRRHCCPAGFRCAARGTKCLRREAPRWDAPLRDPALRQLL
modifications: biotinylated or DyLight650-labelled in some assays
notes: also called hPGRN; PGRN
B11: biotinylated Progranulin C-terminal peptide (peptide)
peptide: Biotin-TKCLRREAPRWDAPLRDPALRQLL
notes: also called hPGRN peptide
B12: S-22-9 (antibody, V domains shown)
VH: B2 VH with S30R, S31N, F55G, T57W, S59N
VL: B2 VL
notes: IgG
B13: S-22-3 (antibody, V domains shown)
VH: B2 VH with S30R, I54G, S59W
VL: B2 VL
notes: IgG
B14: S-22-7 (antibody, V domains shown)
VH: B2 VH with I54G, T57R, S59N
VL: B2 VL
notes: IgG
B15: recombinant mouse Progranulin (Adipogen) (ligand, UniProt P28798 18-589, looked up)
chain: TQCPDGQFCPVACCLDQGGANYSCCNPLLDTWPRITSHHLDGSCQTHGHCPAGYSCLLTVSGTSSCCPFSKGVSCGDGYHCCPQGFHCSADGKSCFQMSDNPLGAVQCPGSQFECPDSATCCIMVDGSWGCCPMPQASCCEDRVHCCPHGASCDLVHTRCVSPTGTHTLLKKFPAQKTNRAVSLPFSVVCPDAKTQCPDDSTCCELPTGKYGCCPMPNAICCSDHLHCCPQDTVCDLIQSKCLSKNYTTDLLTKLPGYPVKEVKCDMEVSCPEGYTCCRLNTGAWGCCPFAKAVCCEDHIHCCPAGFQCHTEKGTCEMGILQVPWMKKVIAPLRLPDPQILKSDTPCDDFTRCPTNNTCCKLNSGDWGCCPIPEAVCCSDNQHCCPQGFTCLAQGYCQKGDTMVAGLEKIPARQTTPLQIGDIGCDQHTSCPVGQTCCPSLKGSWACCQLPHAVCCEDRQHCCPAGYTCNVKARTCEKDVDFIQPPVLLTLGPKVGNVECGEGHFCHDNQTCCKDSAGVWACCPYLKGVCCRDGRHCCPGGFHCSARGTKCLRKKIPRWDMFLRDPVPRPLL
modifications: biotinylated
notes: also called mPGRN; Bio-mPGRN

The binders below were run against T1, human Sortilin expressed on 293 / HEK293T cells (human, UniProt Q99523 78-830) (assay: FACS, 293 cells;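 further: antibodies at 10 µg/ml bound to cells for 1 h on ice, detected with PE-labelled anti-human secondary antibody by flow cytometry, reported as mean fluorescence intensity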).
T1 construct: full-length recombinant human Sortilin; also called hSort; SORT1

Row | Binder | MFI
1 | B1 | 8430
2 | B2 | 8940
3 | B3 | 8740

Each binder was assayed against T2, mouse Sortilin expressed on 293 / HEK293T cells (mouse, UniProt Q6PHU5 74-825) (assay: FACS, 293 cells;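 further: antibodies at 10 µg/ml bound to cells for 1 h on ice, detected with PE-labelled anti-human secondary antibody by flow cytometry, reported as mean fluorescence intensity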).
T2 construct: full-length recombinant mouse Sortilin; also called mSort; msSort

Row | Binder | MFI
4 | B1 | 22400
5 | B2 | 23200
6 | B3 | 17600

What follows are binders tested against T1, human Sortilin expressed on 293 / … (assay: cell binding, HEK293T, FACS).

Row | Binder | Kd
7 | B1 | 1.1 nM
8 | B2 | 2.4 nM
9 | B3 | 3.3 nM

The binders below were run against T2, mouse Sortilin expressed on 293 / … (assay: cell binding, HEK293T, FACS).

Row | Binder | Kd
10 | B1 | 6.6 nM
11 | B2 | 5 nM
12 | B3 | 6.4 nM

The binders below were run against T3, biotinylated mouse Sortilin monomer (mouse, UniProt Q6PHU5 74-754, limits assumed, biotinylated) (assay: ForteBio, Fab).
T3 construct: also called Bt-msSort
Experimental: (§1) The affinity of the anti-Sortilin antibodies was determined by measuring their KD by ForteBio and MSD. […] Briefly, ForteBio affinity measurements were performed by loading immunoglobulins (IgGs) on-line onto AHQ sensors. Sensors were equilibrated off-line in assay buffer for 30 min and then monitored on-line for 60 seconds for baseline establishment. For avid binding measurement, sensors with loaded IgGs were exposed to 100 nM antigen (human or mouse Sortilin Fc fusion) for 3 min, afterwards they were transferred to assay buffer for 3 min for off-rate measurement. […] Monovalent binding measurements were obtained by loading human or mouse Sortilin Fc fusion antigens to AHQ sensor and followed by exposure to −100 nM Sortilin antibody Fab. […] Kinetics data were fit using a 1:1 binding model in the data analysis software provided by ForteBio.

Row | Binder | Kd
13 | B4 | 7.59 nM
14 | B5 | 1.43 nM
15 | B6 | 0.751 nM
16 | B7 | 3.29 nM
17 | B8 | 0.769 nM
18 | B9 | 0.758 nM

The binders below were run against T4, biotinylated human Sortilin monomer (human, UniProt Q99523 78-755, limits assumed, biotinylated (Sulfo-NHS-biotin)) (assay: ForteBio, Fab).
T4 construct: monomer cut from the Fc fusion with IdeS; used unbiotinylated in solution in some formats; also called Bt-hSort; b-H Sort
Experimental: as §1

Row | Binder | Kd
19 | B4 | 0.261 nM
20 | B5 | 0.698 nM
21 | B6 | 0.508 nM
22 | B7 | 0.575 nM
23 | B8 | 0.943 nM
24 | B9 | 1.04 nM

What follows are binders tested against T2, mouse Sortilin expressed on 293 / … (assay: FACS, time course of binding and endocytosis of human PGRN-DyLight650 by HEK293T cells expressing mouse Sortilin).

Row | Binder | binding result
25 | B10 | binds

Each binder was assayed against T4, biotinylated human Sortilin monomer (assay: ForteBio, peptide format: human Sortilin monomer (100 nM) on biotinylated PGRN peptide on SA sensors).
Experimental: SA sensors were soaked in PBS for 10 min prior to analysis. […] The data was prepared for analysis with ForteBio Data Analysis Software version 8.1.0.36 as follows. The data was y-axis aligned and inter-step corrected to the beginning of the Sortilin capture step and then cropped to show only the Sortilin capture and antibody interaction steps.

Row | Binder | binding result
26 | B11 | binds

Each binder was assayed against T3, biotinylated mouse Sortilin monomer (assay: MSD-SET, Fab).
Experimental: (§2) Antibodies (20 nM in PBS) were coated onto standard bind MSD-ECL plates overnight at 4° C. or at room temperature for 30 min. Plates were then blocked with 1% BSA for 30 min with shaking at 700 rpm, followed by three washes with wash buffer (PB SF+0.05% Tween 20). SET samples were applied and incubated on the plates for 150 s with shaking at 700 rpm followed by one wash. Antigen captured on a plate was detected with 250 ng/ml sulfotag-labeled streptavidin in PBSF by incubation on the plate for 3 min. The plates were washed three times with wash buffer and then read on the MSD Sector Imager 2400 instrument using 1× Read Buffer T with surfactant. The percent free antigen was plotted as a function of titrated antibody in Prism and fit to a quadratic equation to extract the KD. To improve throughput, liquid handling robots were used throughout MSD-SET experiments, including SET sample preparation.

Row | Binder | Kd
27 | B5 | 1.2 nM
28 | B6 | 0.57 nM
29 | B8 | 0.11 nM
30 | B9 | 0.1 nM

These binders were tested against T4, biotinylated human Sortilin monomer (assay: MSD-SET, Fab).
Experimental: as §2

Row | Binder | Kd
31 | B4 | 0.011 nM
32 | B5 | 0.097 nM
33 | B6 | 0.098 nM
34 | B7 | 0.0048 nM
35 | B8 | 0.26 nM
36 | B9 | 0.19 nM

What follows are binders tested against T5, mouse Sortilin Fc fusion protein (mouse; human, UniProt Q6PHU5 74-754) (assay: ForteBio, avid;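 further: whole IgG captured on AHQ sensors, then contacted with Sortilin Fc fusion antigen at 100 nM, followed by an off-rate phase in buffer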).
T5 construct: whole entry named; also called mSort-Fc
Experimental: (§3) The affinity for the Sortilin antibodies was determined by measuring their KD by ForteBio. […] Briefly, ForteBio affinity measurements were performed by loading IgGs on-line onto AHQ sensors. Sensors were equilibrated off-line in assay buffer for 30 min and then monitored on-line for 60 seconds for baseline establishment. For avid binding measurement, sensors with loaded IgGs were exposed to 100 nM antigen (human or mouse Sortilin Fc fusion) for 3, afterwards they were transferred to assay buffer for 3 min for off-rate measurement.
(§4) The binding affinity of each anti-Sortilin antibody was determined by measuring their KD by ForteBio or MSD-SET at room temperature. […] Briefly, ForteBio affinity measurements were performed by loading IgGs on-line onto AHQ sensors. Sensors were equilibrated off-line in assay buffer for 30 min and then monitored on-line for 60 seconds for baseline establishment. Sensors with loaded IgGs were exposed to 100 nM antigen for 5 minutes, then transferred to assay buffer for 5 min for off-rate measurement. Kinetics were analyzed using the 1:1 binding model.

Row | Binder | Kd
37 | B1 | 1.07 nM
38 | B2 | 1.12 nM
39 | B3 | 1.4 nM

These binders were tested against T6, human Sortilin Fc fusion protein (human, UniProt Q99523 78-755) (assay: ForteBio, avid;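 further: whole IgG captured on AHQ sensors, then contacted with Sortilin Fc fusion antigen at 100 nM, followed by an off-rate phase in buffer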).
T6 construct: whole entry named; also called hSort-Fc
Experimental: as §3, §4

Row | Binder | Kd
40 | B1 | 0.517 nM
41 | B2 | 0.99 nM
42 | B3 | 2.3 nM

The binders below were run against T2, mouse Sortilin expressed on 293 / … (assay: FACS, HEK293T + msSort).
Experimental: (§5) Antibodies were diluted in FACS buffer (PBS+2% FBS+0.01% NaAzide). After incubation on ice for 1 h, cells were washed three times in FACS buffer and incubated with anti-human PE conjugated secondary antibody (BD Biosciences, 1:100 dilution) for 30 min on ice. Then cells were washed twice in 200 ul FACS buffer, and subsequently analyzed on a FACS Canto or iQE FACS screening instrument (Intellicyt Corp).

Row | Binder | Kd
43 | B12 | 5.12 nM
44 | B13 | 3.63 nM
45 | B14 | 4.78 nM

Each binder was assayed against T1, human Sortilin expressed on 293 / … (assay: FACS, HEK293T + hSort).
Experimental: as §5

Row | Binder | Kd
46 | B12 | 0.81 nM
47 | B13 | 1.08 nM
48 | B14 | 2.65 nM

Each binder was assayed against T7, recombinant human Sortilin, His-tagged (R&D Systems) (human, UniProt Q99523 78-755) (assay: Biacore SPR, His-captured Sortilin).
T7 construct: bought; whole entry named; also called His-captured SORT1

Row | Binder | Kd
49 | B10 | 14.3 nM

The binders below were run against T7, recombinant human Sortilin, His-tagged … (assay: ELISA, biotinylated PGRN on immobilized Sortilin).

Row | Binder | Kd
50 | B10 | 14 nM

The binders below were run against T8, recombinant mouse Sortilin (R&D Systems) (mouse, UniProt Q6PHU5 74-754, limits assumed) (assay: ELISA, biotinylated PGRN on immobilized Sortilin).
T8 construct: bought; also called mouse SORT1

Row | Binder | Kd
51 | B15 | 40 nM
